Measured values as given in patent publication US20240409635A1 (VIBRANT PHARMA, published 2024).

T1: recombinant human tumor antigen CEACAM-6 (ACRO systems, CE6-H5223) (human, UniProt P40199 35-320)
T1 construct: Bought
T1 sequence (looked up): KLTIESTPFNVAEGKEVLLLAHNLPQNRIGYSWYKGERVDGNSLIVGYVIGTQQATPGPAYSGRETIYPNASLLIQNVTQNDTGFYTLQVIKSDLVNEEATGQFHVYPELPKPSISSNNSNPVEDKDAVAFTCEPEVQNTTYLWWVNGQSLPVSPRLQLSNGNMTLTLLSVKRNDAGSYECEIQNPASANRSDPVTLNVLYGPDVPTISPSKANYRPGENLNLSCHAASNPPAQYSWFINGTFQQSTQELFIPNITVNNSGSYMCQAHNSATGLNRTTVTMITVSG


Experiments:
Test in all cases: BLI, antibody on AHC sensor, antigen as analyte
[1] = target: T1, recombinant human tumor antigen …
[2] = target: T2, recombinant human protein CD3ε/δ (ACRO systems, CDD-H52W1) (human, UniProt P07766 23-126; P04234 22-105)
T2 construct: Bought heterodimer

[3] = target: T3, recombinant human tumor antigen HER2 (ERBB2, ACRO systems, HE2-H5212) (human, UniProt P04626 23-652)
T3 construct: Bought

T2 sequence (P07766 23-126, stated change not applied, chain 1 of 2): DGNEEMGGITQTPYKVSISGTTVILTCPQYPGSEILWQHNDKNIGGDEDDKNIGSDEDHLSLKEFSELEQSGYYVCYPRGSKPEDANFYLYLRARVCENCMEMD
T2 sequence (P04234 22-105, stated change not applied, chain 2 of 2): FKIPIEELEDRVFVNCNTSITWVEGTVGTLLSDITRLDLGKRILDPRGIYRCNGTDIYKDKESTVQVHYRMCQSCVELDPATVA

| Binder | Kd [1] [nM] | koff [1] [s⁻¹] | kon [1] [M⁻¹ s⁻¹] | Kd [2] [nM] | koff [2] [s⁻¹] | kon [2] [M⁻¹ s⁻¹] | Kd [3] [nM] | koff [3] [s⁻¹] | kon [3] [M⁻¹ s⁻¹] |
| --- | --- | --- | --- | --- | --- | --- | --- | --- | --- |
| unilateral CD3/CEA-CAM6/HER2 trispecific antibody 701 (other) chain 1: EVKLLESGGGLVQPKGSLKLSCAASGFTFNTYAMNWVRQAPGKGLEWVARIRSKYNNYATYYADSVKDRFTISRDDSQSILYLQMNNLKTEDTAMYYCVRHGNFGNSYVSWFAYWGQGTLVTVSSASTKGPSVFPLAPCSRSTSESTAALGCLVKDYFPEPVTVSWNSGALTSGVHTFPAVLQSSGLYSLSSVVTVPSSSLGTKTYTCNVDHKPSNTKVDKRVESKYGPPCPPCPAPEAAGGPSVFLFPPKPKDTLMISRTPEVTCVVVDVSQEDPEVQFNWYVDGVEVHNAKTKPREEQFNSTYRVVSVLTVLHQDWLNGKEYKCKVSNKGLPSSIEKTISKAKGQPREPQVYTLPPCQEEMTKNQVSLWCLVKGFYPSDIAVEWESNGQPENNYKTTPPVLDSDGSFFLYSRLTVDKSRWQEGNVFSCSVMHEALHNHYTQKSLSLSL chain 2: QVQLVQSGGGLVQAGGSLRLSCAASGRTFSSYAMAWFRQAPGKEREFVAAISWSGANIYVADSVKGRFTISRDNAKDTVYLQMNSLKPEDTAVYYCAVKLGFAPVEERQYDYWGQGTQVTVSSESKYGPPCPPCPAPEAAGGPSVFLFPPKPKDTLMISRTPEVTCVVVDVSQEDPEVQFNWYVDGVEVHNAKTKPREEQFNSTYRVVSVLTVLHQDWLNGKEYKCKVSNKGLPSSIEKTISKAKGQPREPQVCTLPPSQEEMTKNQVSLSCAVKGFYPSDIAVEWESNGQPENNYKTTPPVLDSDGSFFLVSRLTVDKSRWQEGNVFSCSVMHEALHNRFTQKSLSLSL chain 3: QAVVTQESALTTSPGETVTLTCRSSTGAVTTSNYANWVQEKPDHLFTGLIGGTNKRAPGVPARFSGSLIGDKAALTITGAQTEDEAIYFCALWYSNLWVFGGGTKVEIKRTVAAPSVFIFPPSDEQLKSGTASVVCLLNNFYPREAKVQWKVDNALQSGNSQESVTEQDSKDSTYSLSSTLTLSKADYEKHKVYACEVTHQGLSSPVTKSFNRGECGGGGSGGGGSQVKLEESGGGLVQAGGSLRLSCRTSGRTNSVYTMGWFRQAPGKEREFVAQIMWGAGTNTHYADSVKGRFTISRDSAESTVYLQMNSLKPEDTAVYYCAANRGIPIAGRQYDYWGQGTQVTVSS | 13.3 | 0.00297 | 223000 | 1.3 | 0.000402 | 309000 | 37.5 | 0.00693 | 185000 |
| unilateral CD3/CEA-CAM6/HER2 trispecific antibody 709 (other) chain 1: EVKLLESGGGLVQPKGSLKLSCAASGFTFNTYAMNWVRQAPGKGLEWVARIRSKYNNYATYYADSVKDRFTISRDDSQSILYLQMNNLKTEDTAMYYCVRHGNFGNSYVSWFAYWGQGTLVTVSSASTKGPSVFPLAPCSRSTSESTAALGCLVKDYFPEPVTVSWNSGALTSGVHTFPAVLQSSGLYSLSSVVTVPSSSLGTKTYTCNVDHKPSNTKVDKRVESKYGPPCPPCPAPEAAGGPSVFLFPPKPKDTLMISRTPEVTCVVVDVSQEDPEVQFNWYVDGVEVHNAKTKPREEQFNSTYRVVSVLTVLHQDWLNGKEYKCKVSNKGLPSSIEKTISKAKGQPREPQVYTLPPCQEEMTKNQVSLWCLVKGFYPSDIAVEWESNGQPENNYKTTPPVLDSDGSFFLYSRLTVDKSRWQEGNVFSCSVMHEALHNHYTQKSLSLSL chain 2: QVKLEESGGGLVQAGGSLRLSCRTSGRTNSVYTMGWFRQAPGKEREFVAQIMWGAGTNTHYADSVKGRFTISRDSAESTVYLQMNSLKPEDTAVYYCAANRGIPIAGRQYDYWGQGTQVTVSSESKYGPPCPPCPAPEAAGGPSVFLFPPKPKDTLMISRTPEVTCVVVDVSQEDPEVQFNWYVDGVEVHNAKTKPREEQFNSTYRVVSVLTVLHQDWLNGKEYKCKVSNKGLPSSIEKTISKAKGQPREPQVCTLPPSQEEMTKNQVSLSCAVKGFYPSDIAVEWESNGQPENNYKTTPPVLDSDGSFFLVSRLTVDKSRWQEGNVFSCSVMHEALHNRFTQKSLSLSL chain 3: QVQLVQSGGGLVQAGGSLRLSCAASGRTFSSYAMAWFRQAPGKEREFVAAISWSGANIYVADSVKGRFTISRDNAKDTVYLQMNSLKPEDTAVYYCAVKLGFAPVEERQYDYWGQGTQVTVSSGGGGSGGGGSQAVVTQESALTTSPGETVTLTCRSSTGAVTTSNYANWVQEKPDHLFTGLIGGTNKRAPGVPARFSGSLIGDKAALTITGAQTEDEAIYFCALWYSNLWVFGGGTKVEIKRTVAAPSVFIFPPSDEQLKSGTASVVCLLNNFYPREAKVQWKVDNALQSGNSQESVTEQDSKDSTYSLSSTLTLSKADYEKHKVYACEVTHQGLSSPVTKSFNRGEC | 4.16 | 0.0018 | 433000 | 0.351 | 6.18e-05 | 176000 | 20.7 | 0.00455 | 219000 |
| unilateral CD3/CEA-CAM6/HER2 trispecific antibody 703 (other) chain 1: EVKLLESGGGLVQPKGSLKLSCAASGFTFNTYAMNWVRQAPGKGLEWVARIRSKYNNYATYYADSVKDRFTISRDDSQSILYLQMNNLKTEDTAMYYCVRHGNFGNSYVSWFAYWGQGTLVTVSSASTKGPSVFPLAPCSRSTSESTAALGCLVKDYFPEPVTVSWNSGALTSGVHTFPAVLQSSGLYSLSSVVTVPSSSLGTKTYTCNVDHKPSNTKVDKRVESKYGPPCPPCPAPEAAGGPSVFLFPPKPKDTLMISRTPEVTCVVVDVSQEDPEVQFNWYVDGVEVHNAKTKPREEQFNSTYRVVSVLTVLHQDWLNGKEYKCKVSNKGLPSSIEKTISKAKGQPREPQVYTLPPCQEEMTKNQVSLWCLVKGFYPSDIAVEWESNGQPENNYKTTPPVLDSDGSFFLYSRLTVDKSRWQEGNVFSCSVMHEALHNHYTQKSLSLSL chain 2: QVQLVQSGGGLVQAGGSLRLSCAASGRTFSSYAMAWFRQAPGKEREFVAAISWSGANIYVADSVKGRFTISRDNAKDTVYLQMNSLKPEDTAVYYCAVKLGFAPVEERQYDYWGQGTQVTVSSESKYGPPCPPCPAPEAAGGPSVFLFPPKPKDTLMISRTPEVTCVVVDVSQEDPEVQFNWYVDGVEVHNAKTKPREEQFNSTYRVVSVLTVLHQDWLNGKEYKCKVSNKGLPSSIEKTISKAKGQPREPQVCTLPPSQEEMTKNQVSLSCAVKGFYPSDIAVEWESNGQPENNYKTTPPVLDSDGSFFLVSRLTVDKSRWQEGNVFSCSVMHEALHNRFTQKSLSLSL chain 3: QVKLEESGGGLVQAGGSLRLSCRTSGRTNSVYTMGWFRQAPGKEREFVAQIMWGAGTNTHYADSVKGRFTISRDSAESTVYLQMNSLKPEDTAVYYCAANRGIPIAGRQYDYWGQGTQVTVSSGGGGSGGGGSQAVVTQESALTTSPGETVTLTCRSSTGAVTTSNYANWVQEKPDHLFTGLIGGTNKRAPGVPARFSGSLIGDKAALTITGAQTEDEAIYFCALWYSNLWVFGGGTKVEIKRTVAAPSVFIFPPSDEQLKSGTASVVCLLNNFYPREAKVQWKVDNALQSGNSQESVTEQDSKDSTYSLSSTLTLSKADYEKHKVYACEVTHQGLSSPVTKSFNRGEC | 5.16 | 0.00187 | 363000 | 0.379 | 8.4e-05 | 222000 | 16.3 | 0.00356 | 218000 |
| unilateral CD3/CEA-CAM6/HER2 trispecific antibody 710 (other) chain 1: QVKLEESGGGLVQAGGSLRLSCRTSGRTNSVYTMGWFRQAPGKEREFVAQIMWGAGTNTHYADSVKGRFTISRDSAESTVYLQMNSLKPEDTAVYYCAANRGIPIAGRQYDYWGQGTQVTVSSESKYGPPCPPCPAPEAAGGPSVFLFPPKPKDTLMISRTPEVTCVVVDVSQEDPEVQFNWYVDGVEVHNAKTKPREEQFNSTYRVVSVLTVLHQDWLNGKEYKCKVSNKGLPSSIEKTISKAKGQPREPQVYTLPPCQEEMTKNQVSLWCLVKGFYPSDIAVEWESNGQPENNYKTTPPVLDSDGSFFLYSRLTVDKSRWQEGNVFSCSVMHEALHNHYTQKSLSLSL chain 2: EVKLLESGGGLVQPKGSLKLSCAASGFTFNTYAMNWVRQAPGKGLEWVARIRSKYNNYATYYADSVKDRFTISRDDSQSILYLQMNNLKTEDTAMYYCVRHGNFGNSYVSWFAYWGQGTLVTVSSASTKGPSVFPLAPCSRSTSESTAALGCLVKDYFPEPVTVSWNSGALTSGVHTFPAVLQSSGLYSLSSVVTVPSSSLGTKTYTCNVDHKPSNTKVDKRVESKYGPPCPPCPAPEAAGGPSVFLFPPKPKDTLMISRTPEVTCVVVDVSQEDPEVQFNWYVDGVEVHNAKTKPREEQFNSTYRVVSVLTVLHQDWLNGKEYKCKVSNKGLPSSIEKTISKAKGQPREPQVCTLPPSQEEMTKNQVSLSCAVKGFYPSDIAVEWESNGQPENNYKTTPPVLDSDGSFFLVSRLTVDKSRWQEGNVFSCSVMHEALHNRFTQKSLSLSL chain 3: QVQLVQSGGGLVQAGGSLRLSCAASGRTFSSYAMAWFRQAPGKEREFVAAISWSGANIYVADSVKGRFTISRDNAKDTVYLQMNSLKPEDTAVYYCAVKLGFAPVEERQYDYWGQGTQVTVSSGGGGSGGGGSQAVVTQESALTTSPGETVTLTCRSSTGAVTTSNYANWVQEKPDHLFTGLIGGTNKRAPGVPARFSGSLIGDKAALTITGAQTEDEAIYFCALWYSNLWVFGGGTKVEIKRTVAAPSVFIFPPSDEQLKSGTASVVCLLNNFYPREAKVQWKVDNALQSGNSQESVTEQDSKDSTYSLSSTLTLSKADYEKHKVYACEVTHQGLSSPVTKSFNRGEC | 4.48 | 0.00179 | 398000 | 0.686 | 0.000127 | 186000 | 15.4 | 0.00383 | 249000 |
